Legend:
Experiment in all cases: SPR; basigin immobilised on a CM5 chip by amine coupling (850 RU); PfRH5 variant injected at 8-0.0625 uM, 120 s at 30 uL/min, 300 s dissociation; 20 C; 10 mM HEPES pH 7.4, 150 mM NaCl, 3 mM EDTA, 0.005% Tween-20, 2 mg/mL dextran, 1 mg/mL salmon sperm DNA; blank surface subtracted; global 1:1 interaction model
Details in all cases: both partners purified
[1] = target: T1, PfRH5 protein variant version 5.0 (native 3D7 PfRH5 sequence) (Plasmodium falciparum (3D7 clone), UniProt Q8IFM5 26-526, N-linked glycan(s): one or both of the N-X-T sequons starting at N38 and N214 are glycosylated)
T1 construct: The construct has an N-terminal BiP insect signal peptide (…); No cleavage site for the His6 tag is described; also called PfRH5 v5.0; v5.0; source: without the Con A step
T1 sequence: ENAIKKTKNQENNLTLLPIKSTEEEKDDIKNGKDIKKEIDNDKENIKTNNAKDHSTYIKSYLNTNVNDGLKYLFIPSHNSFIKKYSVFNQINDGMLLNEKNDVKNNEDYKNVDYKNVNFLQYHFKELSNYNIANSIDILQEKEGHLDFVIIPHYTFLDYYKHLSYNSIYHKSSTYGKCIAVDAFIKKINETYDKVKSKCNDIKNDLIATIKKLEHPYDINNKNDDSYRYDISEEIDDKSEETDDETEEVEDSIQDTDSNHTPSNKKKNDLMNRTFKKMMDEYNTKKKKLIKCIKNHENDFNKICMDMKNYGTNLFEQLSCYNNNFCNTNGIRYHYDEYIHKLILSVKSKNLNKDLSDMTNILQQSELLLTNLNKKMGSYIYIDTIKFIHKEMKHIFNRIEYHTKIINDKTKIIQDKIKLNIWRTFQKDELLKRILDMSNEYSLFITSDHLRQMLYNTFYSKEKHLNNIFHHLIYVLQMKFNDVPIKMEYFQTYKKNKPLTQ

[2] = target: T2, PfRH5 protein variant version 3.0 (3D7 sequence, four putative N-linked glycosylation sites mutated Asn to … (Plasmodium falciparum (3D7 clone), UniProt Q8IFM5 26-526, N38Q | N214Q | Asn to Gln at N284 | Asn to Gln at N297))
T2 construct: the four putative N-linked glycosylation sites (N38, N214, N284, N297) mutated Asn to Gln; The construct has an N-terminal BiP insect signal peptide (…); No cleavage site for the His6 tag is described; also called PfRH5 v3.0; v3.0
T2 sequence: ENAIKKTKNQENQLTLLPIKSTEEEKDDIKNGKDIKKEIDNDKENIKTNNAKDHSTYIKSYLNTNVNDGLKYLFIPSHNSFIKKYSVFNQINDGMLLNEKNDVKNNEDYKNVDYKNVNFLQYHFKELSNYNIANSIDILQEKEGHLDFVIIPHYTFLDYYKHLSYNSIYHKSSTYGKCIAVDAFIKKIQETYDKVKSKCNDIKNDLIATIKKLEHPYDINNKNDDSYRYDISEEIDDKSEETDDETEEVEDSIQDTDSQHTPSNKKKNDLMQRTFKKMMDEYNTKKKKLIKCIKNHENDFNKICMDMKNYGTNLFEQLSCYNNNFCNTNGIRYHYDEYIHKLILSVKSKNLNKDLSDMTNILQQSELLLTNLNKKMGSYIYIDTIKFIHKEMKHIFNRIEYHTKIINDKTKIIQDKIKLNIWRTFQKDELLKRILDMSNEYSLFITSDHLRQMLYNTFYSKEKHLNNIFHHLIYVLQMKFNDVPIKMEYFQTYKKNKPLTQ

[3] = target: T3, PfRH5 protein variant version 2.0 (3D7 sequence, four N-linked glycosylation sequons mutated Thr to Ala) (Plasmodium falciparum (3D7 clone), UniProt Q8IFM5 26-526, Thr to Ala in the sequon starting at N38 (position 40 worked out) | Thr to Ala …)
T3 construct: The construct has an N-terminal BiP insect signal peptide (…); No cleavage site for the His6 tag is described; also called PfRH5 v2.0; v2.0
T3 sequence: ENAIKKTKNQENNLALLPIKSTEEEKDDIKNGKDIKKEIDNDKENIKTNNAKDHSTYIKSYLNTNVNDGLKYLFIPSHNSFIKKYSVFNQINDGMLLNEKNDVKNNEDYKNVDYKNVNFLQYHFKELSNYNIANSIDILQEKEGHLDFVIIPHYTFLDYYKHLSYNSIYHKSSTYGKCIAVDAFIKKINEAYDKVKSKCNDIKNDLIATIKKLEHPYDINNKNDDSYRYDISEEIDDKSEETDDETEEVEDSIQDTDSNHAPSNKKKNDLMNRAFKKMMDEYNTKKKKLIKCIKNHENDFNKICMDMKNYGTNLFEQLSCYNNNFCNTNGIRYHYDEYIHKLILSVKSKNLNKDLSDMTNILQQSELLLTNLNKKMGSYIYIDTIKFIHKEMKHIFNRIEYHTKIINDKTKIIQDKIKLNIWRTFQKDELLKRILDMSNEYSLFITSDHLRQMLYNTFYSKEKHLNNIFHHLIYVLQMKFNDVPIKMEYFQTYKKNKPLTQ

Measured: binding result

B1: recombinant basigin, immunoglobulin domains 1 and 2 of the short isoform (22-205) (domain or fragment)
chain: GAAGTVFTTVEDLGSKILLTCSLNDSATEVTGHRWLKGGVVLKEDALPGQKTEFKVDSDDQWGEYSCVFLPEPMGTANIQLHGPPRVKAVKSSEHINEGETAMLVCKSESVPPVTDWAWYKITDSEDKALMNGSESRFFVSSSQGRSELHIENLNMEADPGQYRCNGTSSKGSDQAIITLRVRSH
notes: additional glycine left at the N-terminus from the TEV cleavage site; basigin (CD147), immunoglobulin domains 1 and 2 of the short isoform, residues 22-205; numbers count on: the short isoform; basigin is spoken of as the red blood cell receptor of the human malaria parasite; also called CD147; PfRH5 receptor; not shown: His6, N-terminal, cleaved
binds: [1] | [2] | [3]
